Laboratory results published in the supplement of paper PMC9112550, “Optimization of the antimicrobial peptide Bac7 by deep mutational scanning” (BMC Biology, 2022).

Test system: Escherichia coli TOP10
Assay: shrunken log2 fold change of peptide-encoding DNA abundance (4.5 h post-induction vs induction); higher = less antimicrobial activity (less host growth inhibition)
Settings: time post-induction: 4.5 h; library: site-saturation at positions 5, 18, 19, 20
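Further: peptides expressed intracellularly from a pBAD plasmid library in pooled LB shake-flask culture, induced with 0.3% L-arabinose, DNA abundance read by NGS, three biological replicates, DESeq2 with apeglm shrinkage.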

Sequence	shrunken log2 fold change
RRIRARPPRLPRPRPRPNSHPRP	-0.248
RRIRTRPPRLPRPRPRPVETPRP	0.306
RRIRIRPPRLPRPRPRPGWDPRP	0.105
RRIRARPPRLPRPRPRPDIYPRP	0.115
RRIRRRPPRLPRPRPRPTICPRP	0.394
RRIRHRPPRLPRPRPRPFVCPRP	-0.453
RRIRQRPPRLPRPRPRPPAPPRP	0.399
RRIRSRPPRLPRPRPRPSWLPRP	-0.101
RRIRDRPPRLPRPRPRPCGSPRP	0.0136
RRIRYRPPRLPRPRPRPRTGPRP	-0.0225
RRIRGRPPRLPRPRPRPWWPPRP	0.404
RRIRERPPRLPRPRPRPLQNPRP	-0.116
RRIRKRPPRLPRPRPRPHKVPRP	-0.033
RRIRSRPPRLPRPRPRPGHQPRP	-0.167
RRIRDRPPRLPRPRPRPHTLPRP	-0.196
RRIRYRPPRLPRPRPRPQPEPRP	0.239
RRIRQRPPRLPRPRPRPIIQPRP	-0.248
RRIRSRPPRLPRPRPRPEGRPRP	-0.0898
RRIRSRPPRLPRPRPRPYSWPRP	-0.244
RRIRLRPPRLPRPRPRPFNWPRP	-0.223
RRIRARPPRLPRPRPRPSPVPRP	0.355
RRIRGRPPRLPRPRPRPKMEPRP	0.582
RRIRLRPPRLPRPRPRPCEPPRP	0.023
RRIRVRPPRLPRPRPRPWGAPRP	0.21
RRIRFRPPRLPRPRPRPGDCPRP	-0.0759

Sequence	shrunken log2 fold change
RRIRSRPPRLPRPRPRPERCPRP	0.0123
RRIRERPPRLPRPRPRPKPAPRP	0.666
RRIRHRPPRLPRPRPRPMNSPRP	-0.214
RRIRARPPRLPRPRPRPEPDPRP	-0.0215
RRIRIRPPRLPRPRPRPMNQPRP	-0.169
RRIRNRPPRLPRPRPRPVNVPRP	-0.304
RRIRFRPPRLPRPRPRPHAVPRP	-0.0464
RRIRCRPPRLPRPRPRPWVMPRP	-0.221
RRIRHRPPRLPRPRPRPCWNPRP	-0.151
RRIRLRPPRLPRPRPRPCWDPRP	-0.104
RRIRCRPPRLPRPRPRPDKGPRP	0.0974
RRIRVRPPRLPRPRPRPSTGPRP	-0.00698
RRIRKRPPRLPRPRPRPRARPRP	0.776
RRIRMRPPRLPRPRPRPVCPPRP	0.0129
RRIRFRPPRLPRPRPRPPTGPRP	0.217
RRIRQRPPRLPRPRPRPPERPRP	0.0424
RRIRKRPPRLPRPRPRPNINPRP	-0.169
RRIRCRPPRLPRPRPRPFWQPRP	-0.0799
RRIRVRPPRLPRPRPRPGLEPRP	0.0118
RRIRHRPPRLPRPRPRPPLLPRP	0.152
RRIRARPPRLPRPRPRPQAQPRP	0.664
RRIRQRPPRLPRPRPRPRVVPRP	0.0149
RRIRYRPPRLPRPRPRPMNIPRP	-0.124
RRIRDRPPRLPRPRPRPTQEPRP	0.604
RRIRTRPPRLPRPRPRPQRNPRP	-0.115

Sequence	shrunken log2 fold change
RRIRQRPPRLPRPRPRPIFGPRP	-0.00652
RRIRKRPPRLPRPRPRPCHKPRP	0.0108
RRIRSRPPRLPRPRPRPYYWPRP	-0.00332
RRIRWRPPRLPRPRPRPYWDPRP	-0.415
RRIRQRPPRLPRPRPRPSYGPRP	-0.188
RRIRMRPPRLPRPRPRPPGWPRP	1.25
RRIRFRPPRLPRPRPRPIKCPRP	-0.229
RRIRHRPPRLPRPRPRPMPVPRP	-0.0266
RRIRKRPPRLPRPRPRPKDFPRP	-0.0746
RRIRQRPPRLPRPRPRPLDGPRP	0.237
RRIRKRPPRLPRPRPRPNYLPRP	-0.0798
RRIRFRPPRLPRPRPRPNQKPRP	-0.159
RRIRSRPPRLPRPRPRPMWKPRP	-0.101
RRIRQRPPRLPRPRPRPEEEPRP	0.00797
RRIRARPPRLPRPRPRPSKSPRP	0.0305
RRIRNRPPRLPRPRPRPNKMPRP	-0.0283
RRIRMRPPRLPRPRPRPSIDPRP	0.789
RRIRRRPPRLPRPRPRPITEPRP	0.0622
RRIRNRPPRLPRPRPRPFSFPRP	-0.186
RRIRCRPPRLPRPRPRPWPKPRP	0.0772
RRIRFRPPRLPRPRPRPYWNPRP	-0.388
RRIRRRPPRLPRPRPRPDKQPRP	0.0803
RRIRMRPPRLPRPRPRPAGIPRP	-0.000742
RRIRERPPRLPRPRPRPVEAPRP	0.21
RRIRKRPPRLPRPRPRPYAEPRP	-0.0528
